Measurements: patent US20220296726A1 (Bicycle, published 2022)
*1 amine or outer side, *2 acyl side, *3 side chain or, on linkers, in order; H or OH if unused. Bridges are numbered along the chain shown (N, C = ends). Where no end group is shown, it is not given here. [ ]: non-standard residue; d: D form. The star is where a group is joined. TATA = O=C(CC[*:1])N1CN(C(=O)CC[*:2])CN(C(=O)CC[*:3])C1; Pent4ynoyl = C#CCCC(=O)*; Aib = CC(C)(N)C(=O)O

T1: Human TREM2 extracellular domain (ECD), residues 19-131, C-terminally biotinylated, deglycosylated (human, UniProt Q9NZC2 19-131, C-terminally biotinylated; deglycosylated)
T1 construct: range 19-131; loaded on Superstreptavidin biosensors; also called triggering receptor expressed on myeloid cells 2; Human BLI (deglycosylated)
T1 sequence (looked up): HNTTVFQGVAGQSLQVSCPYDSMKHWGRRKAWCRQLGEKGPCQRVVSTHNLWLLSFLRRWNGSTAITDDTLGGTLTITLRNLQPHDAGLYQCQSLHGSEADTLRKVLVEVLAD

B1: BCY20102 (peptide)
peptide: CSEYCFWPFXHC
modifications: N-terminal acetyl (Ac); CiSEYCiiFWPF[K(PYA)]HCiii; Ci, Cii, Ciii on TATA scaffold
B2: BCY20220 (peptide)
peptide: Ac-CSEYCFWPFQYC
modifications: linker 1-5-12 via TATA
B3: BCY20221 (peptide)
peptide: Ac-CSYYCFWPFQYC
modifications: linker 1-5-12 via TATA
B4: BCY18217 (peptide)
peptide: Ac-CSEYCFWPFYHC-NH2
modifications: linker 1-5-12 via TATA
B5: BCY20093 (peptide)
peptide: Ac-CSEYCFWPF[dA]HC
modifications: linker 1-5-12 via TATA
B6: BCY20571 (peptide)
peptide: Ac-CSEYCFWPFEHC
modifications: linker 1-5-12 via TATA
B7: BCY20572 (peptide)
peptide: Ac-CSEYCFWPFYQC
modifications: linker 1-5-12 via TATA
B8: BCY20087 (peptide)
peptide: Ac-CS[dA]YCFWPFYHC
modifications: linker 1-5-12 via TATA
B9: BCY20086 (peptide)
peptide: Ac-C[dA]EYCFWPFYHC
modifications: linker 1-5-12 via TATA
B10: BCY20566 (peptide)
peptide: Ac-CSEYCYWPFYHC
modifications: linker 1-5-12 via TATA
B11: BCY20082 (peptide)
peptide: Ac-CSEYCFWPFYPC
modifications: linker 1-5-12 via TATA
B12: BCY20570 (peptide)
peptide: Ac-CSEYCFWPFDHC
modifications: linker 1-5-12 via TATA
B13: BCY20094 (peptide)
peptide: Ac-CSEYCFWPFY[dA]C
modifications: linker 1-5-12 via TATA
B14: BCY20568 (peptide)
peptide: Ac-CSEYCFWPYYHC
modifications: linker 1-5-12 via TATA
B15: BCY20573 (peptide)
peptide: Ac-CSEYCFWPFYDC
modifications: linker 1-5-12 via TATA
B16: BCY20070 (peptide)
peptide: Ac-CSEYCFWPLYHC
modifications: linker 1-5-12 via TATA
B17: BCY20084 (peptide)
peptide: Ac-CSEYCFWPFYSC
modifications: linker 1-5-12 via TATA
B18: BCY20574 (peptide)
peptide: Ac-CSEYCFWPFYEC
modifications: linker 1-5-12 via TATA
B19: BCY20083 (peptide)
peptide: Ac-CSEYCFWPFYNC-NH2
modifications: linker 1-5-12 via TATA
SMILES: CC(=O)N[C@H]1CSCCC(=O)N2CN3CN(C2)C(=O)CCSC[C@H](NC(=O)[C@H](Cc2ccc(O)cc2)NC(=O)[C@H](CCC(=O)O)NC(=O)[C@H](CO)NC1=O)C(=O)N[C@@H](Cc1ccccc1)C(=O)N[C@@H](Cc1c[nH]c2ccccc12)C(=O)N1CCC[C@H]1C(=O)N[C@@H](Cc1ccccc1)C(=O)N[C@@H](Cc1ccc(O)cc1)C(=O)N[C@@H](CC(N)=O)C(=O)N[C@H](C(N)=O)CSCCC3=O
B20: BCY20563 (peptide)
peptide: Ac-CDEYCFWPFYHC
modifications: linker 1-5-12 via TATA
B21: BCY20576 (peptide)
peptide: Ac-CSEYCFWPFYFC
modifications: linker 1-5-12 via TATA
B22: BCY20567 (peptide)
peptide: CSEYCXWPFYHC
modifications: N-terminal acetyl (Ac); CiSEYCii[4Pal]WPFYHCiii; Ci, Cii, Ciii on TATA scaffold
B23: BCY20085 (peptide)
peptide: Ac-CSEYCFWPFYHCK(Pent4ynoyl)
modifications: linker 1-5-12 via TATA
B24: BCY20101 (peptide)
peptide: Ac-CSEYCFWPK(Pent4ynoyl)YHC
modifications: linker 1-5-12 via TATA
B25: BCY19670 (peptide)
peptide: Ac-CSEYCFW[Aib]FYHC
modifications: linker 1-5-12 via TATA
B26: BCY17669 (peptide)
peptide: ACSEYCFWPFYSCA
modifications: linker 2-6-13 via TATA
B27: BCY18225 (peptide)
peptide: ACSEYCFWAFYHCA
modifications: linker 2-6-13 via TATA
B28: BCY18228 (peptide)
peptide: ACSEYCFWPFYACA
modifications: linker 2-6-13 via TATA
B29: BCY18227 (peptide)
peptide: ACSEYCFWPFAHCA
modifications: linker 2-6-13 via TATA
B30: BCY17670 (peptide)
peptide: ACSEYCFWPFYPCA
modifications: linker 2-6-13 via TATA
B31: BCY17671 (peptide)
peptide: ACSEYCFWPFWNCA
modifications: Ci, Cii, Ciii on TATA scaffold
B32: BCY18221 (peptide)
peptide: ACSAYCFWPFYHCA
modifications: linker 2-6-13 via TATA
B33: BCY18220 (peptide)
peptide: ACAEYCFWPFYHCA-NH2
modifications: linker 2-6-13 via TATA; N-terminus assumed
SMILES: C[C@H](N)C(=O)N[C@H]1CSCCC(=O)N2CN3CN(C2)C(=O)CCSC[C@H](NC(=O)[C@H](Cc2ccc(O)cc2)NC(=O)[C@H](CCC(=O)O)NC(=O)[C@H](C)NC1=O)C(=O)N[C@@H](Cc1ccccc1)C(=O)N[C@@H](Cc1c[nH]c2ccccc12)C(=O)N1CCC[C@H]1C(=O)N[C@@H](Cc1ccccc1)C(=O)N[C@@H](Cc1ccc(O)cc1)C(=O)N[C@@H](Cc1c[nH]cn1)C(=O)N[C@H](C(=O)N[C@@H](C)C(N)=O)CSCCC3=O
B34: BCY17672 (peptide)
peptide: ACSEYCFWPFFNCA
modifications: Ci, Cii, Ciii on TATA scaffold
B35: BCY19777 (peptide)
peptide: ACSEYCFWPFYLCA
modifications: linker 2-6-13 via TATA
B36: BCY20222 (peptide)
peptide: Ac-CSEYCFWPFFLC
modifications: linker 1-5-12 via TATA
B37: BCY20569 (peptide)
peptide: CSEYCFWPXYHC
modifications: N-terminal acetyl (Ac); CiSEYCiiFWP[4Pal]YHCiii; Ci, Cii, Ciii on TATA scaffold
B38: BCY20096 (peptide)
peptide: CSXYCFWPFYHC
modifications: N-terminal acetyl (Ac); CiS[K(PYA)]YCiiFWPFYHCiii; Ci, Cii, Ciii on TATA scaffold
B39: BCY20575 (peptide)
peptide: CSEYCFWPFYXC
modifications: N-terminal acetyl (Ac); CiSEYCiiFWPFY[HArg]Ciii; Ci, Cii, Ciii on TATA scaffold

target: T1, Human TREM2 extracellular domain (ECD), …; assay: BLI steady state, deglycosylated human TREM2 ECD on sensor
Protocol: Bio-layer interferometry was performed on an Octet RED384® system (Sartorius) at 25° C. in a buffer containing 50 mM HEPES (pH 7.5), 150 mM NaCl and 0.1% Tween. […] Reference wells containing no bicycle peptides and reference sensors loaded with an unrelated protein (His-tagged MLLT3a) were subjected to the same assay protocol and double reference subtraction was used for processing to account for non-specific binding. Traces were analysed using Octet Software (Version 11.0). Association and dissociation curves were globally fit and the response at equilibrium (Req) plotted against concentration to obtain steady-state KD values.

Binder	Kd [µM]
B1	1.47
B2	1.3
B3	0.69
B4	0.9
B5	4.69
B6	2.21
B7	1.06
B8	18
B9	17.9
B10	2.14
B11	1.93
B12	1.87
B13	2.53
B14	2.28
B15	1.96
B16	1.67
B17	1.65
B18	1.74
B19	1.83
B20	3.17

Binder	Kd [µM]
B21	1.35
B22	1.02
B23	1.62
B24	18.6
B25	30
B26	1.2
B27	14
B28	2.6
B29	3.1
B30	1.7
B31	0.9
B32	1.8
B33	2
B34	2
B35	~1.2
B36	1.57
B37	3.8
B38	2.5
B39	0.375
